Data reported in PMC11538695 (Advanced Science, 2024).
Values belong to the binder of their own block, whether it stands above or below them.

Assays:
Details in all cases: both partners purified
[1] = molecular target: T1, full-length human P97/VCP (Valosin-Containing Protein) (human, UniProt P55072 1-806); experiment: pull-down; MBP pull-down, SNARE complex held by MBP-syntaxin5; P97/VCP-P47 without or with VCPIP1 WT or Y623E/F638E added (VCPIP1 WT enhanced, the double mutant did not)
T1 construct: P97/VCP (valosin-containing protein), human, full length; Cloned into pRSF-32 M (N-terminal thioredoxin and 6xHis) or pET-28a; source: E. coli BL21 (DE3), purified (Ni-NTA, size exclusion chromatography)

[2] = molecular target: T2, Syntaxin5 (STX5) contained SNARE complex (syntaxin-5, GOSR1, Ykt6, Bet1, without transmembrane domains) (human, UniProt Q13190 55-330; O95249 150-230; O15498 1-193; O15155 1-93); experiment: as above
T2 construct: syntaxin-5, human, residues 55-330; GosR1, human, residues 150-230; Ykt6, human, residues 1-193; Bet1, human, residues 1-93; also called intact SNARE complex; SNARE substrate; source: E. coli BL21 (DE3), pellets mixed and lysed together, purified (amylose resin, size exclusion chromatography); not shown: MBP, N-terminal, kept; copies: + + +
T2 sequence (looked up) 1: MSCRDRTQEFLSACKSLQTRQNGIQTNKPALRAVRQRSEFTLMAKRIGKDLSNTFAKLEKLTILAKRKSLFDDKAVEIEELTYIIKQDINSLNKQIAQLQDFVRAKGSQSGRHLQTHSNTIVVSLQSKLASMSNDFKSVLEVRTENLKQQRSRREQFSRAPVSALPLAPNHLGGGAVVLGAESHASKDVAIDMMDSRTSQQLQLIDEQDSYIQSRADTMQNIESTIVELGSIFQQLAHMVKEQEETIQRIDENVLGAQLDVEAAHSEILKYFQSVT
T2 sequence (looked up) 2: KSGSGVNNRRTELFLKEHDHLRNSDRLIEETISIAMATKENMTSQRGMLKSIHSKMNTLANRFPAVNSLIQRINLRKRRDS
T2 sequence (looked up) 3: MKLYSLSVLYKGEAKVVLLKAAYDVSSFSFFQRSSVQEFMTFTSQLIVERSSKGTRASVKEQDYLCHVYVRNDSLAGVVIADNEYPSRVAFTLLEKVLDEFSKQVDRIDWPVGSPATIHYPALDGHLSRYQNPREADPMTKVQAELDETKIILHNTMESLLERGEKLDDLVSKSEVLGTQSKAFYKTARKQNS
T2 sequence (looked up) 4: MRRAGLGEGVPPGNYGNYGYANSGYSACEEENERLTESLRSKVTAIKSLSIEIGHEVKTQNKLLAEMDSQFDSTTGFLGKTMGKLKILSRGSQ

[3] = molecular target: T3, N-terminal region of VCPIP1 (residues 40-464) (human, UniProt Q96JH7 40-464); experiment: SEC; gel filtration co-migration of purified fragments, fractions on SDS-PAGE with Coomassie staining
T3 construct: VCPIP1, human, N-terminal region with the OTU domain, residues 40-464; also called N-terminal OTU domain (residues 40-464); source: E. coli BL21 (DE3) (said of the recombinant proteins in general), purified
T3 sequence (looked up): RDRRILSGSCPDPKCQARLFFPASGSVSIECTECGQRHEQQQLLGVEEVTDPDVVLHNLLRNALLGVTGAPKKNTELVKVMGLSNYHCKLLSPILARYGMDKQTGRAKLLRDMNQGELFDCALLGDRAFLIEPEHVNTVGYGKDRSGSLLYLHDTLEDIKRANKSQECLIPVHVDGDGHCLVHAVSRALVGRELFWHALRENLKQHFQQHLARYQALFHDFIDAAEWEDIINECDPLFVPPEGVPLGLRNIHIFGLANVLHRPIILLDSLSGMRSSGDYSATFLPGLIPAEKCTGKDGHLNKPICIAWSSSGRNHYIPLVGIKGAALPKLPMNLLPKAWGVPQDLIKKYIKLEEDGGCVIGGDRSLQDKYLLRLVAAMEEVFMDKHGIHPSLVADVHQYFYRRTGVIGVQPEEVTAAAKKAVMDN

[4] = molecular target: T1, full-length human P97/VCP …; experiment: pull-down; 50 µg GST-tagged VCPIP1 protein held on glutathione Sepharose 4B, full-length P97/VCP at molar ratio 1:3; 20 mM Tris pH 7.5, 100 mM NaCl, 1 mM DTT; Coomassie staining

B1: full-length human P47 (natural protein, UniProt Q9UNZ2 1-370, looked up)
chain: MAAERQEALREFVAVTGAEEDRARFFLESAGWDLQIALASFYEDGGDEDIVTISQATPSSVSRGTAPSDNRVTSFRDLIHDQDEDEEEEEGQRFYAGGSERSGQQIVGPPRKKSPNELVDDLFKGAKEHGAVAVERVTKSPGETSKPRPFAGGGYRLGAAPEEESAYVAGEKRQHSSQDVHVVLKLWKSGFSLDNGELRSYQDPSNAQFLESIRRGEVPAELRRLAHGGQVNLDMEDHRDEDFVKPKGAFKAFTGEGQKLGSTAPQVLSTSSPAQQAENEAKASSSILIDESEPTTNIQIRLADGGRLVQKFNHSHRISDIRLFIVDARPAMAATSFILMTTFPNKELADESQTLKEANLLNAVIVQRLT
notes: P47 (adaptor of P97/VCP), human, full length; Cloned into pRSF-32 M or pET-28a; source: E. coli BL21 (DE3), purified (Ni-NTA, size exclusion chromatography)
binding result [1]: binds
binding result [2]: binds

B2: C-terminal tail of P97/VCP (residues 765-806) (domain or fragment, human, UniProt P55072 765-806, looked up)
chain: SRGFGSFRFPSGNQGGAGPSQGSGGGTGGSVYTEDNDDDLYG
notes: P97/VCP, human, C-terminal tail, residues 765-806; also called P97/VCP tail; source: E. coli BL21 (DE3) (said of the recombinant proteins in general), purified
binding result [3]: binds

Continued, values first:

binding result [4]: binds
B3: GST-VCPIP1 F1 fragment (IDR1-OTU) (domain or fragment, human, UniProt Q96JH7 1-464, looked up)
chain: MSQPPPPPPPLPPPPPPPEAPQTPSSLASAAASGGLLKRRDRRILSGSCPDPKCQARLFFPASGSVSIECTECGQRHEQQQLLGVEEVTDPDVVLHNLLRNALLGVTGAPKKNTELVKVMGLSNYHCKLLSPILARYGMDKQTGRAKLLRDMNQGELFDCALLGDRAFLIEPEHVNTVGYGKDRSGSLLYLHDTLEDIKRANKSQECLIPVHVDGDGHCLVHAVSRALVGRELFWHALRENLKQHFQQHLARYQALFHDFIDAAEWEDIINECDPLFVPPEGVPLGLRNIHIFGLANVLHRPIILLDSLSGMRSSGDYSATFLPGLIPAEKCTGKDGHLNKPICIAWSSSGRNHYIPLVGIKGAALPKLPMNLLPKAWGVPQDLIKKYIKLEEDGGCVIGGDRSLQDKYLLRLVAAMEEVFMDKHGIHPSLVADVHQYFYRRTGVIGVQPEEVTAAAKKAVMDN
notes: VCPIP1, human, residues 1-464 (methods); the results print 1-465; pGEX-6P-1 vector; source: E. coli BL21 (DE3), purified (glutathione Sepharose 4B, size exclusion chromatography); not shown: GST, N-terminal, kept

binding result [4]: binds
B4: GST-VCPIP1 F3 fragment (IDR2-UBL-UFD2) (domain or fragment, human, UniProt Q96JH7 680-1000, looked up)
chain: QGQESESQLPTKIILTGQKTKTLHKEELNMSKTERTIQQNITEQASVMQKRKTEKLKQEQKGQPRTVSPSTIRDGPSSAPATPTKAPYSPTTSKEKKIRITTNDGRQSMVTLKSSTTFFELQESIAREFNIPPYLQCIRYGFPPKELMPPQAGMEKEPVPLQHGDRITIEILKSKAEGGQSAAAHSAHTVKQEDIAVTGKLSSKELQEQAEKEMYSLCLLATLMGEDVWSYAKGLPHMFQQGGVFYSIMKKTMGMADGKHCTFPHLPGKTFVYNASEDRLELCVDAAGHFPIGPDVEDLVKEAVSQVRAEATTRSRESSPS
notes: VCPIP1, human, residues 680-1000; pGEX-6P-1 vector; source: E. coli BL21 (DE3), purified (glutathione Sepharose 4B, size exclusion chromatography); not shown: GST, N-terminal, kept
